Results taken from article PMC8887487 (Nucleic Acids Research, 2022).

Key:
256–595 domain of Dicer = molecular target: T1, 256–595 domain of Dicer (human, UniProt Q9UPY3 256-595); experiment: SEC
T1 sequence: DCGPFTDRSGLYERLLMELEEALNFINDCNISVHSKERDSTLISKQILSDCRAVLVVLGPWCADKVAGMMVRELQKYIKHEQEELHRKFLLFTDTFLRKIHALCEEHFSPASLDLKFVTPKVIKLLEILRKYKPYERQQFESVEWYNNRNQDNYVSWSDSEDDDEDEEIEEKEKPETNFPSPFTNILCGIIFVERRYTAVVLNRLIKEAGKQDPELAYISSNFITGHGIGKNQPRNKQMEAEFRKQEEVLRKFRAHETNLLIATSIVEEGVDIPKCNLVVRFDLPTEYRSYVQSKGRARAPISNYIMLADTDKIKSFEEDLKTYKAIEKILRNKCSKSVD

[1] = molecular target: GST (glutathione-S-transferase)-tagged RPAP3 (human, UniProt Q9H6T3 1-665); experiment: pull-down
Chain of GST (glutathione-S-transferase)-tagged RPAP3 (Q9H6T3 whole entry): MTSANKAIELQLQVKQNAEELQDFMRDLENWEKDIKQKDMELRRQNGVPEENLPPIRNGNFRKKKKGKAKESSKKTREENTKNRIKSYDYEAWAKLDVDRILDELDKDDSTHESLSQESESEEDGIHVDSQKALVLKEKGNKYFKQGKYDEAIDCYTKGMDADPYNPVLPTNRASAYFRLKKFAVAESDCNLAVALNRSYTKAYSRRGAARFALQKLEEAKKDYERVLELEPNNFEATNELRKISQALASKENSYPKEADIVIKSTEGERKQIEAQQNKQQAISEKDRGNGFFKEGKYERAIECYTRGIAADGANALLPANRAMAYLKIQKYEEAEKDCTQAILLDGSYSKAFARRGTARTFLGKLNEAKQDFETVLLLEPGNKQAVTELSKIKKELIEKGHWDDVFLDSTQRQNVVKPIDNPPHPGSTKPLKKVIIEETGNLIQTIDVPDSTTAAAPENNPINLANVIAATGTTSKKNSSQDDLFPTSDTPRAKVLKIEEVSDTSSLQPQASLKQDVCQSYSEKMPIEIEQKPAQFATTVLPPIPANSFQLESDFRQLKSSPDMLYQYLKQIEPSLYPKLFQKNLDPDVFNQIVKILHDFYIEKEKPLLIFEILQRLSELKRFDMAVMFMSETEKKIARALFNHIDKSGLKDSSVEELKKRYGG

B1: TRBP-dsRBD3 (262–366) (domain or fragment)
chain: GCTWDSLRNSVGEKILSLRSCSLGSLGALGPACCRVLSELSEEQAFHVSYLDIEELSLSGLCQCLVELSTQPATVCHGSATTREAARGEAARRALQYLKIMAGSK
binding result (256–595 domain of Dicer): binds

B2: His6-tagged TRBP protein (natural protein)
chain: MSEEEQGSGTTTGCGLPSIEQMLAANPGKTPISLLQEYGTRIGKTPVYDLLKAEGQAHQPNFTFRVTVGDTSCTGQGPSKKAAKHKAAEVALKHLKGGSMLEPALEDSSSFSPLDSSLPEDIPVFTAAAAATPVPSVVLTRSPPMELQPPVSPQQSECNPVGALQELVVQKGWRLPEYTVTQESGPAHRKEFTMTCRVERFIEIGSGTSKKLAKRNAAAKMLLRVHTVPLDARDGNEVEPDDDHFSIGVGSRLDGLRNRGPGCTWDSLRNSVGEKILSLRSCSLGSLGALGPACCRVLSELSEEQAFHVSYLDIEELSLSGLCQCLVELSTQPATVCHGSATTREAARGEAARRALQYLKIMAGSK
binding result [1]: binds
